Results as given in patent US20050037969A1 (ARBOR VITA, published 2005).
Ends that are not written are not given here. * marks the point of attachment. Biotin = O=C1N[C@H]2[C@H](CS[C@H]2CCCCC(=O)*)N1

Assays:
Assay in all cases: A/G assays
[1] = target: T1, GST-PTN-4 PDZ domain fusion protein (Homo sapiens (Human), UniProt P29074 517-605)
T1 construct: also called protein-tyrosine phosphatase meg1; not shown: glutathione S-transferase encoded by vector pGEX-3X (Pharmacia)
T1 sequence: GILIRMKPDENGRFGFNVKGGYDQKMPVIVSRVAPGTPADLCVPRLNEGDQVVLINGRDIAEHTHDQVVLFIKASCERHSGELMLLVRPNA

[2] = target: T2, NOS1 PDZ-GST fusion protein (Homo sapiens (Human), UniProt P29475 11-100)
T2 construct: Order of GST and PDZ part and limits not seen in the excerpts
T2 sequence (P29475 11-100 limits assumed): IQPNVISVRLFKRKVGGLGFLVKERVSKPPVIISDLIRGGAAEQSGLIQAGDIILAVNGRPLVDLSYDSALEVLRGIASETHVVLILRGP

[3] = target: T3, GST-DLG5 (p-dlg) PDZ domain fusion protein (Human, UniProt Q8TDM6 1343-1583)
T3 construct: also called Human discs large protein p-dlg; not shown: glutathione S-transferase encoded by vector pGEX-3X (Pharmacia)
T3 sequence: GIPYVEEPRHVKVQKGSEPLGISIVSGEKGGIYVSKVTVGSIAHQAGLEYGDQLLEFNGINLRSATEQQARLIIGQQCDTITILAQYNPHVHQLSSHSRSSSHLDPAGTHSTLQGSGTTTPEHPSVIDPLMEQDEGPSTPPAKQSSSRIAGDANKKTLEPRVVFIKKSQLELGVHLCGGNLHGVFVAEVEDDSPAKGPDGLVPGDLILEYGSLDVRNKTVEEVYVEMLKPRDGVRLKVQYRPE

[4] = target: T4, GEF PDZ-GST fusion protein (Homo sapiens (Human), UniProt Q8TEU7 293-400)
T4 construct: The label GEF is not explained in the excerpts
T4 sequence: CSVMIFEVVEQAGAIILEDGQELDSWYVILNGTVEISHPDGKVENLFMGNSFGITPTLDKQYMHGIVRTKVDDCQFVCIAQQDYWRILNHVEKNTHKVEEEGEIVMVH

[5] = target: T5, GST-TAX-IP43 PDZ domain fusion protein (human, UniProt Q13884 109-180)
T5 construct: also called TAX43; not shown: glutathione S-transferase encoded by vector pGEX-3X (Pharmacia)
T5 sequence: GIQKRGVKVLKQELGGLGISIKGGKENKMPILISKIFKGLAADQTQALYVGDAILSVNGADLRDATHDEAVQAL

[6] = target: T6, GST-CASK PDZ domain fusion protein (Homo sapiens, UniProt O14936 486-575)
T6 construct: also called Homo sapiens CASK protein
T6 sequence: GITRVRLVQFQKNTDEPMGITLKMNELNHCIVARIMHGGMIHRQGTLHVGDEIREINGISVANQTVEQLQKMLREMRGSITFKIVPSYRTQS

[7] = target: T7, TAX-IP2L PDZ-GST fusion protein (Homo sapiens (Human), UniProt Q8TF64 107-197)
T7 construct: Order of GST and PDZ part and limits not seen in the excerpts
T7 sequence: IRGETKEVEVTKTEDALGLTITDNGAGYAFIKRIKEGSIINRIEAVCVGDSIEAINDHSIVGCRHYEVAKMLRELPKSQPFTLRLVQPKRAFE

[8] = target: T8, SP short PDZ-GST fusion protein (Homo sapiens (Human), UniProt O43464 350-435)
T8 construct: The label SP short is not explained in the excerpts
T8 sequence: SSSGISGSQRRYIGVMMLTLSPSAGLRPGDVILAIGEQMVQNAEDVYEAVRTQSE

[9] = target: T9, K316 PDZ-GST fusion protein (Homo sapiens (Human), UniProt Q14CM0 72-159)
T9 construct: Order of GST and PDZ part and limits not seen in the excerpts
T9 sequence (Q14CM0 72-159 limits assumed): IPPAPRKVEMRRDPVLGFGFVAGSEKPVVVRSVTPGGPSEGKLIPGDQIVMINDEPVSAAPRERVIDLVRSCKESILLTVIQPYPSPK

[10] = target: T10, GST-DVL1 PDZ domain fusion protein (human, UniProt O14640 247-339)
T10 construct: also called human dishevelled segment polarity protein homolog; not shown: glutathione S-transferase encoded by vector pGEX-3X (Pharmacia)
T10 sequence: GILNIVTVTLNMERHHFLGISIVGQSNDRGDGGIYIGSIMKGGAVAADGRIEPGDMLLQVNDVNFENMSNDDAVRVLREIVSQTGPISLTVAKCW

[11] = target: T11, GST-mouse syntenin fusion protein (Mus musculus, UniProt O08992 108-286)
T11 construct: also called Mus musculus Syntenin; not shown: glutathione S-transferase encoded by vector pGEX-3X (Pharmacia)
T11 chain: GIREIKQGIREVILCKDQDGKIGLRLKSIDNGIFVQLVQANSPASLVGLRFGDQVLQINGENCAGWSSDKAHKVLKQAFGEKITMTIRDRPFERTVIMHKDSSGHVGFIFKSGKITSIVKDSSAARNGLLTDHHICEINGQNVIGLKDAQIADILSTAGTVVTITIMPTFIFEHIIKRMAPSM

[12] = target: T12, PICK1 PDZ-GST fusion protein (Bos taurus (Bovine), UniProt Q2T9M1 17-105)
T12 construct: Order of GST and PDZ part and limits not seen in the excerpts
T12 sequence (Q2T9M1 other isoform, or with tags, fused parts or gaps limits assumed): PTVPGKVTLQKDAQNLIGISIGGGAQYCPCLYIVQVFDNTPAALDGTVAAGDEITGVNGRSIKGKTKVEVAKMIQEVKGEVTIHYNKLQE

[13] = target: T13, K559 PDZ-GST fusion protein (Homo sapiens (Human), UniProt Q9Y6V0 4489-4593)
T13 construct: Order of GST and PDZ part and limits not seen in the excerpts
T13 sequence: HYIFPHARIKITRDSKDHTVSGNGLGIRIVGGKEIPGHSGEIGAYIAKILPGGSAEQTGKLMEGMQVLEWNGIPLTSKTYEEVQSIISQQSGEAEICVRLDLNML

[14] = target: T14, KIAA0807 (PDZ domain)-GST fusion protein (human, UniProt Q6P0Q8 1104-1192)
T14 construct: also called K807; KIAA807; not shown: glutathione S-transferase encoded by vector pGEX-3X (Pharmacia)
T14 sequence: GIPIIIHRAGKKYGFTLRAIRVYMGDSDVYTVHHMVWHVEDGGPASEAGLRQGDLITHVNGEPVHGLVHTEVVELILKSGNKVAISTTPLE

[15] = target: T15, TAX-IP33 PDZ-GST fusion protein (Homo sapiens (Human), UniProt O14910 103-193)
T15 construct: Order of GST and PDZ part and limits not seen in the excerpts
T15 sequence: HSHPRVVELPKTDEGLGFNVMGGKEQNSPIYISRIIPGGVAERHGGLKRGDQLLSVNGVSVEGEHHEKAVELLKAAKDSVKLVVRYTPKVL

[16] = target: T16, GST-KIAA0303 PDZ domain fusion protein (Homo sapiens (Human), UniProt O15021 1138-1228)
T16 construct: also called K303; not shown: glutathione S-transferase encoded by vector pGEX-3X (Pharmacia)
T16 sequence: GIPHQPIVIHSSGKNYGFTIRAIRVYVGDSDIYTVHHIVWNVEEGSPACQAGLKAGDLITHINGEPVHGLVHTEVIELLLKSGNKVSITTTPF

[17] = target: T17, MINT3 PDZ-GST fusion protein
T17 construct: Order of GST and PDZ part and limits not seen in the excerpts
T17 chain: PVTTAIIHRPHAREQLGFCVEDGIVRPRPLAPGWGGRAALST

Measured: binding result

Biotin-ISKATPALPTVSISSSAEV (also called AA1L-R) [Clasp-1 C-terminal peptide AA1L, biotinylated]
no binding: all assays above

Biotin-CAISGTSSDRGYGSPRYAEV (also called AA3L-V) [Clasp-4 C-terminal peptide AA3L, biotinylated]
no binding: all assays above

B1: Mannose receptor C-terminal peptide AA31L (peptide)
peptide: Biotin-GTSDMKDLVGNIEQNEHSVI
notes: Only the last four residues are seen in the excerpts
no binding: all assays above
